What was measured:
[1] = molecular target: T1, recombinant PKD2 used as substrate of Tyk2 and Src (UniProt Q9BZL6)
T1 sequence: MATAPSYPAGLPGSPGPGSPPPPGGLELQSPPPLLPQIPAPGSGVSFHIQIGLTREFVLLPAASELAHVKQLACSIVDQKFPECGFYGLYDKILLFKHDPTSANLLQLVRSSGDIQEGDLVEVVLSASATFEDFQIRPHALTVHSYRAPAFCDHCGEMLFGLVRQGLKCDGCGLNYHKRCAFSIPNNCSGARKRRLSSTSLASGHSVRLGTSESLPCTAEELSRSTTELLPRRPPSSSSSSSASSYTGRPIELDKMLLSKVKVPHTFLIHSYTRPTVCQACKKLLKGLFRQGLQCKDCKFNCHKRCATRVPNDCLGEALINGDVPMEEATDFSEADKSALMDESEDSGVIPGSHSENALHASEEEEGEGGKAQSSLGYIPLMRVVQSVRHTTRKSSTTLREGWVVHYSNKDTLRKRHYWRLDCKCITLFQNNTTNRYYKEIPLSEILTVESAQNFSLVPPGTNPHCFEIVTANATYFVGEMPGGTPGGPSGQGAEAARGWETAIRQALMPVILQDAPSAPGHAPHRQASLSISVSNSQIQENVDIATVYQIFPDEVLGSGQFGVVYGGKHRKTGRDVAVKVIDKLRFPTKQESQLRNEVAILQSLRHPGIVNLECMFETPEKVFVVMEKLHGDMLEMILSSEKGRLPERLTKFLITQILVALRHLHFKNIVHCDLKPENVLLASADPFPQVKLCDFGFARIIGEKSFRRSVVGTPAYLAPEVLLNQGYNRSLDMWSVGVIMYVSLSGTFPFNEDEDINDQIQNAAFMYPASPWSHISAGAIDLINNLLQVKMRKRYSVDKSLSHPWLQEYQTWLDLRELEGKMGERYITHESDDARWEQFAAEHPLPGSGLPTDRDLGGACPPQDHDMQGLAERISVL

[2] = molecular target: T2, GST-IFNAR1 (wild type): bacterially expressed cytoplasmic domain of IFNAR1 fused with GST (UniProt P17181)
T2 sequence: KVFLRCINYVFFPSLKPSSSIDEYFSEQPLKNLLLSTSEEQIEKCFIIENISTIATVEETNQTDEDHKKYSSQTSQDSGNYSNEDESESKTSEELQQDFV

[3] = tested on: purified recombinant Nrf2-Neh2 domain (wild type)
[4] = tested on: purified recombinant Nrf2-Neh2 domain T80A
[5] = tested on: purified recombinant Nrf2-Neh2 domain S40A

Substance: recombinant Src (purchased from Cell Signaling)
- in vitro tyrosine phosphorylation of PKD2 (immunoblot with anti-phospho-Tyr antibody) [1]: tyrosine phosphorylation of PKD2 was easily detected when recombinant Sre protein was used as positive control

Substance: HA-tagged Leishmania major CK1 (L-CK1) immunopurified from 293T cells
- immunokinase assay: phosphorylation of GST-IFNAR1 on Ser535 [2]: immunopurified human CK18, CK1E, and protozoan parasite L-CK1 were active against IFNAR1S535 in the immunokinase assay in vitro

Substance: bacterially produced recombinant GST-CK1α
- in vitro phosphorylation of GST-IFNAR1 on Ser535 and Ser532 (immunoblot with phospho-specific antibodies) [2]: Incubation of recombinant CKla with wild type GST-IFNAR1 substrate and ATP in vitro resulted in phosphorylation of Ser535 but not of Ser532

Substance: Myc-tagged human CK1δ immunopurified from 293T cells
- immunokinase assay: phosphorylation of GST-IFNAR1 on Ser535 [2]: immunopurified human CK18, CK1E, and protozoan parasite L-CK1 were active against IFNAR1S535 in the immunokinase assay in vitro

Substance: recombinant bacterially produced constitutively active ΔN-PERK
- in vitro kinase assay, autoradiography [3]: Purified recombinant PERK phosphorylated wild type Nrf2-Neh2 and a serine 40 to alanine mutant; however, mutation of threonine 80 to alanine abrogated phosphorylation
- in vitro kinase assay, autoradiography [4]: mutation of threonine 80 to alanine abrogated phosphorylation
- in vitro kinase assay, autoradiography [5]: Purified recombinant PERK phosphorylated wild type Nrf2-Neh2 and a serine 40 to alanine mutant; however, mutation of threonine 80 to alanine abrogated phosphorylation
- in vitro kinase assay [2]: activated PERK was not capable of phosphorylating IFNAR1 in vitro

Substance: GST-tagged PKD2 kinase-dead K580N mutant
- in vitro phosphorylation of GST-IFNAR1 on Ser535 (immunoblot with anti-pS535) [2]: Ser535 phosphorylation on GST-IFNAR1 incubated with ATP and GST-PKD2 was not evident when a catalytically deficient (kinase-dead, KD) K580N mutant was used in the reaction

Substance: HA-tagged Tyk2 immunopurified from cells
- in vitro tyrosine phosphorylation of PKD2 (immunoblot with anti-phospho-Tyr antibody) [1]: A robust increase in Tyr phosphorylation of PKD2 was seen when HA-Tyk2 was purified from IFN-a-treated cells

From patent US20120014911
